Measured values taken from the supplement of paper PMC9170038.

System: MS2 coat protein
Assay: apparent KD of MS2 coat protein; higher = weaker reporter binding
Settings: Eterna round: R107
How it was run: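 With or without constant ligand, designed RNA switches in 100 mM Tris-HCl pH 7.5, 80 mM KCl and 4 mM MgCl2 were titrated with SNAP-549-labelled MS2 coat protein. Concentrations went up in twofold steps from 0.7 or 1.5 nM to 3 µM. The switches had been transcribed on-chip from Illumina sequencing clusters, and apparent KD is the per-design median of normalised cluster binding-curve fits.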

[1] = input ligand: theophylline 20 uM
[2] = input ligand: tryptophan 2.4 mM
[3] = input ligand: theophylline 2 mM

Row | Sequence | apparent KD of MS2 coat protein (input ligand: arginine 13.2 mM) | apparent KD of MS2 coat protein [1] | apparent KD of MS2 coat protein [2] | apparent KD of MS2 coat protein (input ligand: none) | apparent KD of MS2 coat protein [3]
1 | GUCUCAGACCGAGAUACCAGCUGGGUUUCCCACAUGAGGAUCACCCAUGUAUUCAGAUUAAGCCCUUGGCAGCUCAUCUAGGUCC [theeternabot_sameState_MS2_Theo_B_44] | 0.0218 µM | 0.0206 µM | 0.0166 µM | – | –
2 | GUCUUGGGAUCGGCCGCCACUACAUGAGGAUCACCCAUGUGGACAAAUAGGGUUGUUAAGCUCGGUAGGACCGGGAUUCGGACAU [Oncetexeza] | 0.0221 µM | 0.0411 µM | 0.111 µM | 0.026 µM | 0.0273 µM
3 | GUGUUUGUGUGAGAUACCAGUGAGGCCACAUGAGGAUCACCCAUGUCCCUCACUCCGGCCCACCCUUGGCAGCUCUUAUAGUAGU [Exclusion Theophylline B GF 23] | 0.00934 µM | 0.0133 µM | 0.00983 µM | – | –
4 | GUUAUAACAAAAGUUGUAACAGUGGGUGAACGAGGACCGGUACGGCCGCCACUCGGACAUGAGGAUCACCCAUGUCCAUGUGAAA [AstrosExyTryA#15] | 0.0141 µM | 0.0182 µM | – | – | 0.0216 µM
5 | GUUAUAGACGGAAGGAGCGCGGCCACAUGAGGAUCACCCAUGUAUUGUGUUGGUAAUAGGUCGCAGGUAGGUCGCCGAUUAAUGA [Same State - Arginine B / A] | 0.0359 µM | 0.0617 µM | 0.034 µM | 0.0551 µM | 0.0475 µM
6 | GUUAUAUCAAAAGAUGUAACAGUGGGUGAACGAGGACCGGUACGGCCGCCACUCGGACAUGAGGAUCACCCAUGUCCAUGUGAAA [AstrosExyTryA#14] | 0.0158 µM | 0.0175 µM | – | – | 0.0187 µM
7 | UAAACUACACAUGAGGAUCACCCAUGUGGCCGAGGACCGGUACGGCCGCCACUCGUGUGUUAAUAAAAGAACUGCAAGGUUCUGU [Laorat] | 0.0687 µM | 0.419 µM | – | – | 0.552 µM
8 | UAAAUAUUACUGGGUAAGGUAUAAAUAGAUACCAGCCAGAUAACUGGCCCUUGGCAGCUAAACAUGAGGAUCACCCAUGUAUAAU [TheoAS 20 #OpenEnded #Ms2Late] | 0.0235 µM | 0.044 µM | 0.0332 µM | – | –
9 | UAACAUGAGGAUCACCCAUGUUUGAAGGAACGAGGACCGGUACGGCCGCCACUCGACGAGUGGAUGAGAAGUGGGAUUGUGUGCU [Same State Trp A GF8] | 0.0144 µM | 0.0175 µM | 0.0152 µM | 0.013 µM | 0.0173 µM
10 | UAAUCAGUGCCGGUUCUCGGAUCCUCAUGUCGAGGACCGGUACGGCCGCCACUCGGAACAUGAGGAUCACCCAUGUAAUAAUAAU [#10 Exclusion Tryptophan A] | 0.0407 µM | 0.101 µM | – | – | 0.162 µM
11 | UAAUGCAGGUCGGCCGCCACUACACACAUGAGGAUCACCCAUGUAGUUACUGGGUGAAGUGGCAGUAGGACCGGGACCUGCAUAA [Brourd01] | 0.185 µM | 0.467 µM | – | – | 0.873 µM
12 | UACAUGAGGAUCACCCAUGUAUAACCGGUACGAGGACCGGUACGGCCGCCACUCGAAACAUGAGGAUCACCCAUGUGCUACUAUU [Same State Trypophan A GF 22] | 0.0253 µM | 0.0364 µM | – | – | 0.0351 µM
13 | UACAUGAGGAUCACCCAUGUAUACAUGGAUACCAGCGACAAUGGGCGCCCUUGGCAGCUAGUGGAUGGAGGGUGGCCACAGUACU [Exclusion Theophyline A GF5] | 0.0255 µM | 0.0531 µM | 0.0427 µM | – | –
14 | UACAUGAGGAUCACCCAUGUAUUGCCGGUACGAGGACCGGUACGGCCGCCACUCGGGACAUGAGGAUCACCCAUGUGCUGCUAUU [Same State Trypophan A GF 23] | 0.0287 µM | 0.0498 µM | 0.0458 µM | 0.0444 µM | 0.0424 µM
15 | UAUAUAUAGGCGGCCGCCACUGAUUUUCAUAUAUAUAUAACAUGAGGAUCACCCAUGUAGAUAUACAGGACCGGGCCUAUAUAUA [aaaA] | 0.017 µM | 0.0165 µM | 0.0133 µM | 0.0161 µM | 0.0147 µM
16 | UAUCCACAUGAGGAUCACCCAUGUAGGGAAGGAGCGGUGAUUUCACCAGGUAGGUCGCCUUACUGAGGAGAACCGGUGGAAUCGU [Exclusion - Arginine A (Freestyle 30)] | 0.0455 µM | 0.0406 µM | 0.0198 µM | 0.0259 µM | 0.0759 µM
17 | UCAGUGCAAGGAAGGAGCGGGUACAUGAGGAUCACCCAUGUGCAAGUGGUGAGCGUUUGUGCCCAGGUAGGUCGCCUAGCCUGGU [XArg-B18] | 0.507 µM | 0.172 µM | 0.159 µM | 0.125 µM | 0.179 µM
18 | UCAUGCAGGUCGGCCGCCACUACACACAUGAGGAUCACCCAUGUAGUUACUGGGUGAAGUGGCAGUAGGACCGGGACCUGCACAC [Brourdmod17] | 0.155 µM | 0.632 µM | 1.09 µM | 0.504 µM | 0.849 µM

Row | Sequence | apparent KD of MS2 coat protein (input ligand: arginine 13.2 mM) | apparent KD of MS2 coat protein [1] | apparent KD of MS2 coat protein [2] | apparent KD of MS2 coat protein (input ligand: none) | apparent KD of MS2 coat protein [3]
19 | UCCACAUGAGGAUCACCCAUGUGCCAUGAUACCAGACAUGAAAAUGUCCCUUGGCAGCAUGAGUGAGGCAUCCGAAAGGAUGCCU [Chrlice] | 0.149 µM | 0.26 µM | 0.409 µM | 0.157 µM | 0.0383 µM
20 | UCCUCCUCCGCAAGGAGGAGGAGUUGCGAUACCAGCACGGUAACGUGCCCUUGGCAGCGCACAUGAGGAUCACCCAUGUCAUGUU [#1 Exclusion - Theophylline A Attempt #11 (HarryS)] | 0.015 µM | 0.0245 µM | 0.0171 µM | – | –
21 | UCCUCCUCCGCAAGGAGGAGGAGUUGCGAUACCAGCCCGGAAACGGGCCCUUGGCAGCGCACAUGAGGAUCACCCAUGUCAUGUU [#1 Exclusion - Theophylline A Attempt #8 (HarryS)] | 0.0146 µM | 0.0198 µM | 0.018 µM | 0.0181 µM | 0.0306 µM
22 | UCCUUAGAUACUGAUACCAGACUACAGUAAACAUGAGGAUCACCCAUGUUUGAUCACUAAGUCCCUUGGCAGCAGGUACAUGGGA [Theo B SS r1] | 0.0126 µM | 0.0129 µM | 0.0119 µM | – | –
23 | UCGCAUUGCUGCGAUACCAGACAUGAGGAUCACCCAUGUACCAAGAAAACGUACAUAAAUGUCCCUUGGCAGCGCAGCAAUGCGU [MAT - Exclusion Theophlline B - Mod of Eli - D26] | 0.148 µM | 0.656 µM | 0.631 µM | – | –
24 | UCGCCCAGAAAGGAUUGCUGGGAUAUGGAAGGAGCGCUGAUGCCAGCAGGUAGGUCGCCAACGGACAUGAGGAUCACCCAUGUAC [Same State - Arginine A (Freestyle 6)] | 0.0167 µM | 0.0287 µM | 0.0209 µM | 0.0198 µM | 0.0211 µM
25 | UCGCCCAGGUAGGCUUAAUGGGAUAUGGAAGGAGCGCUGAUGCCAGCAGGUAGGUCGCCAACGGACAUGAGGAUCACCCAUGUAC [Same State - Arginine A (Freestyle 4)] | 0.0247 µM | 0.0346 µM | 0.0227 µM | 0.018 µM | 0.0271 µM
26 | UCGGGCCUUCUUUCUUGGCCCGUUACAGAAGGAGCGUCGGAAAUGACAGGUAGGUCGCUGAGAACAUGAGGAUCACCCAUGUAUU [SSAA #14] | 0.0168 µM | 0.0289 µM | 0.0221 µM | 0.0264 µM | 0.0251 µM
27 | UCGUGAGUUUCGGAUACCAGUGUUGUCGAUACAUGAGGAUCACCCAUGUUAGAGGAUGUACACCCUUGGCAGCCGGCUGUGGCGG [lplmullin] | 0.0158 µM | 0.0161 µM | 0.0173 µM | – | –
28 | UGACAUUGCUCAGAUACCAGACAUGAGCAUCAGCCAUGUACCGAGAGUACAUGUUAAAGUGUCCCUUGGCAGCUGAGCAAUGUCU [Mod of Eli's TheoBX5 #AlternateMS2 v4] | 0.116 µM | 0.64 µM | 0.404 µM | 0.328 µM | 0.371 µM
29 | UGACAUUGCUGCGAUACCAGACAUGAGGAUCACCCAUGUACCAAGGUACCCGAAAGGAAUGUCCCUUGGCAGCGCAGCAAUGUCU [MAT - Exclusion Theophlline B - Mod of Eli - D18] | 0.0106 µM | 0.0116 µM | 0.00973 µM | – | –
30 | UGAUACCAGUCGGCCGCCACUAUGCUAGAUACUAGCAAUAAAGGGCGACAUGAGGAUCACCCAUGUAGGACCGGGACUGGUAUCU | – | 0.0141 µM | – | – | 0.012 µM
31 | UGCACCAUAAUCAUGUUGGUGCUAGGUGAUACCAGCAUCGAAAGAUGCCCUUGGCAGCACCAACAUGAGGAUCACCCAUGUAAUA [(MT)''-(M)'-(T')-(Theo)-(Ms2)_Design1/22_3] | 0.0601 µM | 0.351 µM | 0.0579 µM | – | –
32 | UGCAUCAUAAUCAUGUAGGUGCUAGGUGAUACCAGCAUCGAAAGAUGCCCUUGGCAGCACCAACAUGAGGAUCACCCAUGUAAUA [(MT)''-(M)'-(T')-(Theo)-(Ms2)_Design1/22_1] | 0.0484 µM | 0.186 µM | 0.231 µM | – | –
33 | UGCGACAAGUGAAUACUUUGUUCUAGAGAUACCAGUUCCCGAGUGAACCCUUGGCAGCUCCCAACAUGAGGAUCACCCAUGUAUU [theeternabot_exclusion_MS2_Theo_A_24] | 0.0159 µM | 0.02 µM | 0.0135 µM | – | –
34 | UGGCAAGAGGGAAGGAGCGUCAGCUGAGUCACAUGAGGAUCACCCAUGUCGCACAUAGUGUGACAGGUAGGUCGCCCUCUGCCGU [Vesosocera] | 0.07 µM | 0.152 µM | 0.122 µM | 0.122 µM | 0.207 µM
35 | UGGCAGCACCUCAUGUGCUGCCAAGGUGAUACCAGCAUCGAAAGAUGCCCUUGGCAGCACCAACAUGAGGAUCACCCAUGUAAUA [(MT)''-(M)'-(T')-(Theo)-(Ms2)_Design1/22_7] | 0.0268 µM | 0.374 µM | 0.217 µM | – | –
36 | UGGGUUGGACCAGGAAAUGGUCUGACUCACCGAGGACCGGUACGGCCGCCACUCGUAGGUACAUGAGGAUCACCCAUGUCGGUGG [#1 Same State - Tryptophan A Attempt #11 (HarryS)] | 0.0917 µM | 0.0342 µM | 0.0688 µM | 0.0236 µM | 0.0362 µM
